Legend:
LNCaP cells = experiment: Cell proliferation assay (BrdU ELISA), R1881-induced proliferation; format: cell-based, human; conditions: LNCaP cells infected with lentivirus, 1×10^−9 M R1881, versus miRNA control (FIG. 4e)
Description: Experiments were performed as described^2. pLenti6-miRNA-control and pLenti6-miRNA-PKCβI were used to produce recombinant lentiviruses to infect LNCaP cells as described^15. The infected cells were cultured for 72 hours in medium containing 10% double-stripped FCS. 1×10^4 cells were plated in a 96-well plate in the presence or absence of 1×10^−9 M R1881. The cell proliferation Elisa BrdU Colorimetric Assay (Roche) was performed according to the manufacturer's instructions. […] The experiments were performed in hexaplicate.

KLK2 and FKBP5 genes = experiment: Quantitative RT-PCR of androgen-regulated genes in LNCaP cells; format: cell-based, human; conditions: miRNA-mediated knockdown (FIG. 3j)
Description: Quantitative RT-PCR and statistical analysis were performed as described. The primers for KLK2 and FKBP5 were described previously^6, 11.

B1: 5′-TGCTGTTACGTAGGGATCTGACAGGCGTTTTGGCCACTGACTGACGCCTGTCATCCCTACGTAA-3′ (nucleic acid)
DNA 1: TGCTGTTACGTAGGGATCTGACAGGCGTTTTGGCCACTGACTGACGCCTGTCATCCCTACGTAA
DNA 2: CCTGTTACGTAGGGATGACAGGCGTCAGTCAGTGGCCAAAACGCCTGTCAGATCCCTACGTAAC
modifications: expressed or natural sequence
R1881-induced cell proliferation (LNCaP cells): severely reduces
expression of the androgen-regulated KLK2 and FKBP5 genes (KLK2 and FKBP5 genes): reduces expression

Reference: US20120329854A1, “Methods and Compounds for the Diagnosis and Treatment for Cancer” (UNIVERSITÄTSKLINIKUM FREIBURG, priority 2009, published 2012)
